Source: paper PMC8727950

Biological target: honey bee (Apis mellifera) vitellogenin, full-length hemolymph Vg (honey bee (Apis mellifera)) (UniProt Q868N5)
Test: native gel or EMSA; BN-PAGE of purified Vg, two different amounts loaded; precast 3-12% acrylamide gels, 4 °C, 2 h at 150 V; no reducing agent in loading buffer or gel; monomer to dimer

Substance: honey bee (Apis mellifera) vitellogenin, full-length hemolymph Vg (from UniProt Q868N5 17-1770) (natural protein)
- stoichiometry N: 2
